± gives the standard error. This sample holds only a part of the variants without activity. A value given as a limit tells only on which side of the number the result lay.

Sequences and labels used below:
B1: glmS ribozyme (parent)
chain: AUAAAAGCGCCAGAACUACAGAAAUGUAGUUGACGAGGAGGAGGUUUAUCGAAUUUUCGGCGGAUGCCUCCAAA

Conditions in all cases: with glucosamine-6-phosphate
Data set [1] covers variants of B1. The data set can be described thus: self-cleavage kobs at 40 uM GlcN6P; higher = faster cleavage; RNA array. Put shortly: (§1)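 Glucosamine-6-phosphate in HEPES/KCl/Mg(OAc)2 buffer, at 40 μM to 10 mM, was flowed over barcoded ribozyme variants transcribed in situ by E. coli RNA polymerase on sequenced MiSeq chips. Tracking was through a hybridised Cy3 probe at 37 °C. kobs, kcat and KM came from exponential decay fits and weighted Michaelis–Menten fits of normalised per-tile medians.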

Data set [2] covers variants of B1. Nature of the data set: self-cleavage kobs at 10000 uM GlcN6P; higher = faster cleavage; RNA array. Put shortly: as §1
Data set [3] covers variants of B1. Nature of the data set: self-cleavage kobs at 160 uM GlcN6P; higher = faster cleavage; RNA array. In outline: as §1
In data set [4] the parent is B1. The data set can be described thus: self-cleavage kobs at 640 uM GlcN6P; higher = faster cleavage; RNA array. Put shortly: as §1
Variants of B1 are the subject of data set [5]. Nature of the data set: self-cleavage kobs at 2500 uM GlcN6P; higher = faster cleavage; RNA array. In outline:
as §1

In the case of A39C G51C C71G, in data set [1], the “self-cleavage kobs at 40 uM GlcN6P” value was < 1e-05 s⁻¹. Besides, the “self-cleavage kobs at 10000 uM GlcN6P” value in data set [2] was < 1e-05 s⁻¹.
As to C10G G41C, the “self-cleavage kobs at 40 uM GlcN6P” value in data set [1] was < 1e-05 s⁻¹. The “self-cleavage kobs at 160 uM GlcN6P” value in data set [3] is < 1e-05 s⁻¹. The “self-cleavage kobs at 640 uM GlcN6P” value in data set [4] is < 1e-05 s⁻¹. The “self-cleavage kobs at 2500 uM GlcN6P” value in data set [5] is < 1e-05 s⁻¹. The “self-cleavage kobs at 10000 uM GlcN6P” value in data set [2] is < 1e-05 s⁻¹.
Take G7U G9C G35C A36U U49A U56A: the “self-cleavage kobs at 40 uM GlcN6P” value in data set [1] was < 1e-05 s⁻¹.
As for G13U A33C, in data set [1], the “self-cleavage kobs at 40 uM GlcN6P” value was < 1e-05 s⁻¹. For the same variant, in data set [3], the “self-cleavage kobs at 160 uM GlcN6P” value was < 1e-05 s⁻¹. The “self-cleavage kobs at 640 uM GlcN6P” value in data set [4] is < 1e-05 s⁻¹. For the same variant, the “self-cleavage kobs at 2500 uM GlcN6P” value in data set [5] was < 1e-05 s⁻¹.
As for A12G C34G G41C C50U U55A, the “self-cleavage kobs at 40 uM GlcN6P” value in data set [1] is < 1e-05 s⁻¹. Besides, in data set [4], the “self-cleavage kobs at 640 uM GlcN6P” value is < 1e-05 s⁻¹.
For G21A, in data set [1], the “self-cleavage kobs at 40 uM GlcN6P” value came to 0.00134 ± 0.00021 s⁻¹. In addition, the “self-cleavage kobs at 160 uM GlcN6P” value in data set [3] was found to be 0.00268 ± 0.00063 s⁻¹. Also, in data set [4], the “self-cleavage kobs at 640 uM GlcN6P” value is 0.00836 ± 0.0012 s⁻¹. Also, the “self-cleavage kobs at 2500 uM GlcN6P” value in data set [5] turned out to be 0.00839 ± 0.0024 s⁻¹. Further, the “self-cleavage kobs at 10000 uM GlcN6P” value in data set [2] stood at 0.0758 ± 0.037 s⁻¹.
As for G9C C71G, the “self-cleavage kobs at 40 uM GlcN6P” value in data set [1] is < 1e-05 s⁻¹. The “self-cleavage kobs at 160 uM GlcN6P” value in data set [3] is < 1e-05 s⁻¹. Moreover, the “self-cleavage kobs at 640 uM GlcN6P” value in data set [4] was < 1e-05 s⁻¹. Moreover, in data set [5], the “self-cleavage kobs at 2500 uM GlcN6P” value is < 1e-05 s⁻¹. Besides, the “self-cleavage kobs at 10000 uM GlcN6P” value in data set [2] is < 1e-05 s⁻¹.
Take C8G C67U: the “self-cleavage kobs at 40 uM GlcN6P” value in data set [1] is < 1e-05 s⁻¹. The “self-cleavage kobs at 160 uM GlcN6P” value in data set [3] was < 1e-05 s⁻¹. Further, the “self-cleavage kobs at 640 uM GlcN6P” value in data set [4] was < 1e-05 s⁻¹. Moreover, the “self-cleavage kobs at 2500 uM GlcN6P” value in data set [5] is < 1e-05 s⁻¹.
Consider C16A A36C G51A A53U U69G, for which the “self-cleavage kobs at 40 uM GlcN6P” value in data set [1] came out at 6.48e-05 ± 2.5e-05 s⁻¹. For the same variant, the “self-cleavage kobs at 10000 uM GlcN6P” value in data set [2] was found to be 4.91e-05 ± 1.6e-05 s⁻¹.
As for A48U C58U, the “self-cleavage kobs at 40 uM GlcN6P” value in data set [1] is < 1e-05 s⁻¹. For the same variant, in data set [3], the “self-cleavage kobs at 160 uM GlcN6P” value is < 1e-05 s⁻¹. Moreover, the “self-cleavage kobs at 640 uM GlcN6P” value in data set [4] is < 1e-05 s⁻¹. Besides, the “self-cleavage kobs at 2500 uM GlcN6P” value in data set [5] was < 1e-05 s⁻¹. In data set [2], the “self-cleavage kobs at 10000 uM GlcN6P” value is < 1e-05 s⁻¹.
As to G44C U54A U57A U65G U69G, in data set [1], the “self-cleavage kobs at 40 uM GlcN6P” value is < 1e-05 s⁻¹. The “self-cleavage kobs at 10000 uM GlcN6P” value in data set [2] is < 1e-05 s⁻¹.
A33G G59C: the “self-cleavage kobs at 40 uM GlcN6P” value in data set [1] is < 1e-05 s⁻¹. Moreover, in data set [3], the “self-cleavage kobs at 160 uM GlcN6P” value is < 1e-05 s⁻¹. For the same variant, the “self-cleavage kobs at 640 uM GlcN6P” value in data set [4] was < 1e-05 s⁻¹. In addition, the “self-cleavage kobs at 2500 uM GlcN6P” value in data set [5] was < 1e-05 s⁻¹. The “self-cleavage kobs at 10000 uM GlcN6P” value in data set [2] is < 1e-05 s⁻¹.
In the case of G29A A48U U54A, in data set [1], the “self-cleavage kobs at 40 uM GlcN6P” value is < 1e-05 s⁻¹. In addition, the “self-cleavage kobs at 10000 uM GlcN6P” value in data set [2] amounted to 3.57e-05 ± 1.5e-05 s⁻¹.
On to U45A A53G U55G, for which the “self-cleavage kobs at 40 uM GlcN6P” value in data set [1] is 0.00113 ± 0.00021 s⁻¹. The “self-cleavage kobs at 10000 uM GlcN6P” value in data set [2] worked out at 0.0551 ± 0.018 s⁻¹.
As to G7A A36U, the “self-cleavage kobs at 40 uM GlcN6P” value in data set [1] is < 1e-05 s⁻¹. Besides, the “self-cleavage kobs at 160 uM GlcN6P” value in data set [3] is < 1e-05 s⁻¹. Moreover, the “self-cleavage kobs at 640 uM GlcN6P” value in data set [4] was < 1e-05 s⁻¹. Also, in data set [5], the “self-cleavage kobs at 2500 uM GlcN6P” value is < 1e-05 s⁻¹.
Regarding G7C U30A, the “self-cleavage kobs at 40 uM GlcN6P” value in data set [1] is < 1e-05 s⁻¹. Also, the “self-cleavage kobs at 160 uM GlcN6P” value in data set [3] was < 1e-05 s⁻¹. Moreover, in data set [4], the “self-cleavage kobs at 640 uM GlcN6P” value was < 1e-05 s⁻¹. The “self-cleavage kobs at 2500 uM GlcN6P” value in data set [5] is < 1e-05 s⁻¹. The “self-cleavage kobs at 10000 uM GlcN6P” value in data set [2] was < 1e-05 s⁻¹.
G41C: in data set [1], the “self-cleavage kobs at 40 uM GlcN6P” value amounted to 1.75e-05 ± 1.7e-06 s⁻¹. Also, the “self-cleavage kobs at 160 uM GlcN6P” value in data set [3] stood at 4.15e-05 ± 1.9e-06 s⁻¹. Also, the “self-cleavage kobs at 640 uM GlcN6P” value in data set [4] worked out at 0.000131 ± 3.6e-06 s⁻¹. The “self-cleavage kobs at 2500 uM GlcN6P” value in data set [5] stood at 0.000529 ± 4.7e-05 s⁻¹. For the same variant, the “self-cleavage kobs at 10000 uM GlcN6P” value in data set [2] came to 0.00255 ± 0.00067 s⁻¹.
The like results for A12C U54A were, in that order, 0.000707 ± 7e-05 s⁻¹, 0.00199 ± 0.00034 s⁻¹, 0.0159 ± 0.0035 s⁻¹, 0.00841 ± 0.0015 s⁻¹ and 0.0301 ± 0.0049 s⁻¹.
Consider U31A G37C U69G, for which the “self-cleavage kobs at 40 uM GlcN6P” value in data set [1] was < 1e-05 s⁻¹.

Values taken from the supplement of paper PMC7125110.
